Patent publication US20080254032A1 (published 2008)
Where two headings read alike, the source gives them in different places.

T1: human M-CSF (human, UniProt P09603 33-190)
T1 chain: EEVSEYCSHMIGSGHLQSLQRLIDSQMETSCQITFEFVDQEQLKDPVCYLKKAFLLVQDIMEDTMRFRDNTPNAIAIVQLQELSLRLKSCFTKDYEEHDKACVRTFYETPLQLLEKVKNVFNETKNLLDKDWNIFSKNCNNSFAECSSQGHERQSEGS


Legend:
human M-CSF [1] = target: T1, human M-CSF; assay: SPR, BIACORE 3000, 25 C, M-CSF amine-coupled on CM5 chip, antibody injected, 1:1 global fit
human M-CSF [2] = target: T1, human M-CSF; assay: receptor binding inhibition: antibody titrated against 125I-M-CSF binding to c-fms on cells (NIH-3T3/human c-fms or M-NSF-60)
human M-CSF [3] = target: T1, human M-CSF; assay: cell-based or functional assay
human M-CSF [4] = target: T1, human M-CSF; assay: cell-based or functional assay
human M-CSF [5] = target: T1, human M-CSF; assay: receptor binding inhibition: antibody titrated against 125I-M-CSF binding to c-fms on cells (NIH-3T3/human c-fms or M-NSF-60)
human M-CSF [6] = target: T1, human M-CSF; assay: SPR, BIACORE 3000, 25 C, M-CSF amine-coupled on B1 chip, antibody injected, 1:1 global fit

Binder	Kd (human M-CSF [1]) [nM]	koff (human M-CSF [1]) [s⁻¹]	IC50 (human M-CSF [2]) [nM]	Human Whole Blood Monocyte Activation Assay [IC50, M] (human M-CSF [3]) [M]	M-CSF Mouse Monocytic Cell Proliferation Assay [IC50, M] (human M-CSF [3]) [M]	Human Whole Blood Monocyte Activation Assay [IC50, M] (human M-CSF [4]) [M]	M-CSF Mouse Monocytic Cell Proliferation Assay [IC50, M] (human M-CSF [4]) [M]	IC50 (human M-CSF [5]) [nM]	Kd (human M-CSF [6]) [nM]
monoclonal antibody 100 (antibody, human IgG2, kappa, V domains shown) VH: EVQLLESGGGLVQPGGSLRLSCAASGFTFSSYAMSWVRQAPGKGLEWVSAISGRGGRTYFADSVKGRFTISRDNSKNTLYLQMNSLRAEDTAVYFCAVEGYSGRYGFFDYWGQGTLVTVSS VL: EIVMTQSPATLSVSPGERATLSCRASQSVSSNLAWYQQKPGQAPRLLIYGASTRASGIPDRISGSGSGTEFTLIISSLQSEDFAVYYCQQSNNWPFTFGPGTKVDIKR	0.02	1.7e-05	1.25	1.53e-10	7.44e-10	–	–	–	–
monoclonal antibody 8.10.3 (antibody, human IgG2, kappa, V domains shown, Human antibody from hybridoma 8.10.3) VH: EVQLVESGGGLVQPGGSLRLSCAASGFTFSSFSMTWVRQAPGKGLEWVSYISSRSSTISYADSVKGRFTISRDNAKNSLYLQMNSLRDEDTAVYYCARDPLLAGATFFDYWGQGTLVTVSS VL: not shown	–	–	–	–	–	2.8e-10	4.13e-10	1.5	–
monoclonal antibody 9.14.4I (antibody, human IgG2, kappa) heavy: QVQLVESGGGLVKPGGSLRLSCAASGFTFSDYYMSWIRQAPGKGLEWVSYISSSGSTIYYADSVKGRFTISRDNAKNSLYLQMNSLRAEDTAVYYCARGLTGDYWGQGTLVTVSSASTKGPSVFPLAPCSRSTSESTAALGCLVKDYFPEPVTVSWNSGALTSGVHTFPAVLQSSGLYSLSSVVTVPSSNFGTQTYTCNVDHKPSNTKVDKTVERKCCVECPPCPAPPVAGPSVFLFPPKPKDTLMISRTPEVTCVVVDVSHEDPEVQFNWYVDGVEVHNAKTKPREEQFNSTFRVVSVLTVVHQDWLNGKEYKCKVSNKGLPAPIEKTISKTKGQPREPQVYTLPPSREEMTKNQVSLTCLVKGFYPSDIAVEWESNGQPENNYKTTPPMLDSDGSFFLYSKLTVDKSRWQQGNVFSCSVMHEALHNHYTQKSLSLSPGK light: not shown	–	–	–	–	–	2.49e-10	2.02e-10	0.297	–
monoclonal antibody 3.8.3 (antibody, human IgG2, kappa, V domains shown) VH: QVQLVESGGGLVKPGGSLRLSCAASGFTFSDYYMSWIRQAPGKGLEWFSYISSSGSTIYYADSVKGRFTISRDNAKNSLSLQMNSLRAEDTAVYYCARGLTGDYWGQGTLVTVSS VL: DIQMTQSPSSVSASVGDRVTISCRASQDISGWLAWYQQKPGKAPKLLISATSSLHSGVPSRFSGSGSGTDFTLTISSLQPEDFATYYCQQTNSFPFTFGPGTKVDIKR	–	–	0.07	8.6e-11	7.3e-11	–	–	–	0.4
monoclonal antibody 2.7.3 (antibody, human IgG4, kappa, V domains shown) VH: QVQLVESGGGVVQPGRSLRLSCAASGFTFSSYGMHWVRQAPGKGLEWVAFIWYDGSNKYYADSVKGRFTISRDNSKNTLYLQMNSLRAEDTAVYYCARGYRVYFDYWGQGTLVTVSS VL: DIQMTQSPSSVSASVGDRVTITCRASQDISSWLAWYQRKPGKAPKLQIYAASSLESGVPSRFNGSGSGTDFTLSISSLQPEDFATYYCQQTNSFPLTFGGGTKVEIKR	–	–	0.308	7.15e-10	1.96e-10	–	–	–	4.7
monoclonal antibody 252 (antibody, human IgG2, kappa, V domains shown) VH: QVQLVESGGGLVKPGGSLRLSCAASGFTFSDYYMSWIRQAPGKGLEWISYISGSGSTIYYADSVKGRFTISRDNAKNSLYLQMNSLRAEDTAVYHCARALGGMDVWGQGTTVTVSS VL: DIQMTQSPSSLSASVGDRVTITCRASQSISGFLNWYQQKPGKAPKLLIYATSSLQSGVPFRFSGSGSGTDFTLTISSLQPEDFATYYCQQSYSVPFTFGPGTKVDIKR	0.0133	1.03e-06	0.747	8.67e-10	1.86e-10	–	–	–	–
monoclonal antibody 9.7.2IF (antibody, human IgG2, kappa, V domains shown) VH: QVQLVESGGGLVKPGGSLRLSCAASGFTFSDYYMSWIRQAPGKGLEWVSYISSSGSTIYYADSVKGRFTISRDNAKNSLYLQMNSLRAEDTAVYYCARRIGGMDVWGQGTTVTVSS VL: DIQMTQSPSSLSASVGDRVTITCRASQSISGFLIWYQQRPGKAPKLLIYATSSLQSGVPSRFSGSGSGTDFTLTISSLQPEDFATYYCQQSYSTPFTFGPGTKVDIKR	–	–	–	–	–	1.12e-09	7.37e-10	0.529	–
monoclonal antibody 9.7.2 (antibody, human IgG4, kappa, V domains shown) VH: QVQLVESGGGLVKPGGSLRLSCAASGFTFSDYYMSWIRQAPGKGLEWVSYISSSGSTIYYADSVKGRFTISRDNAKNSLYLQMNSLRAEDTAVYYCARRIGGMDVWGQGTTVTVSS VL: DIQMTQSPSSLSASVGDRVTITCRASQSISGFLIWYQQRPGKAPKLLIYATSSLQSGVPLRFSGSESGTDFTLTISSLQPEDFATYYCQQSYSTPFTFGPGTKVDIKR	–	–	–	–	–	1.98e-10	7.37e-10	0.006	–
monoclonal antibody 88 (antibody, human IgG2, kappa, V domains shown) VH: EVQLVESGGGLVQPGGSLRLSCAASGFTFSSYWMSWVRQAPGKGLEWVANIKQDGSEKYYVDSVKGRFTISRDNAKNSLYLQMNSLRAEDTAVYYCAPGIAAAGRAYWGQGTLVTVSS VL: DIQMTQSPSSLSASVGDRVTITCRPSQDISSYLNWYQQKPGKAPKLLIYAASSLQSGVPLRFSGSGSGTDFTLTISSLQPEDFATYYCQQSYSTPFTFGPGTKVDIKR	1.33	7.3e-05	0.445	5.8e-10	2.31e-10	–	–	–	–
monoclonal antibody 9.14.4 (antibody, human IgG4, kappa) heavy: QVQLVESGGGLVKPGGSLRLSCAASGFTFSDYYMSWIRQAPGKGLEWVSYISSSGSTIYYADSVKGRFTISRDNAKNSLYLQMNSLRAEDTAVYYCARGLTGDYWGQGTLVTVSSASTKGPSVFPLAPCSRSTSESTAALGCLVKDYFPEPVTVSWNSGALTSGVHTFPAVLQSSGLYSLSSVVTVPSSSLGTKTYTCNVDHKPSNTKVDKRVESKYGPPCPSCPAPEFLGGPSVFLFPPKPKDTLMISRTPEVTCVVVDVSQEDPEVQFNWYVDGVEVHNAKTKPREEQFNSTYRVVSVLTVLHQDWLNGKEYKCKVSNKGLPSSIEKTISKAKGQPREPQVYTLPPSQEEMTKNQVSLTCLVKGFYPSDIAVEWESNGQPENNYKTTPPVLDSDGSFFLYSRLTVDKSRWQEGNVFSCSVMHEALHNHYTQKSLSLSPGK light: not shown	–	–	–	–	–	6.48e-10	2.02e-10	0.041	–
monoclonal antibody 1.120.1 (antibody, human IgG2, kappa, V domains shown) VH: QVQLVQSGAEVKKPGASVKVSCKASGYTFTSYGISWVRQAPGQGLEWMGWISAYNGNTNYAQKLQDRVTMTTDTSTTTAYMELRSLRSDDTAVYYCARRAYGANFFDYWGQGTLVTVSS VL: not shown	–	–	0.157	8.85e-10	1.99e-10	–	–	–	5.4
